Patent CN113956355A

Assays:
[1] = target: 人脑利钠肽(BNP) (human) (UniProt P16860); assay: sandwich ELISA, 5G8 coated, HRP-5D11 detection; 0 pg/ml BNP (blank)
[2] = target: 人脑利钠肽(BNP) (human) (UniProt P16860); assay: sandwich ELISA, 5G8 coated, HRP-5D11 detection; plasma sample with BNP 108 pg/ml
[3] = target: 人脑利钠肽(BNP) (human) (UniProt P16860); assay: sandwich ELISA, 5G8 coated, HRP-5D11 detection; plasma sample with BNP 287 pg/ml
[4] = target: 人脑利钠肽(BNP) (human) (UniProt P16860); assay: sandwich ELISA, 5G8 coated, HRP-5D11 detection; plasma sample with BNP 39.7 pg/ml
[5] = target: 人脑利钠肽(BNP) (human) (UniProt P16860); assay: sandwich ELISA, 5G8 coated, HRP-5D11 detection; plasma sample with BNP 425.6 pg/ml
[6] = target: 人脑利钠肽(BNP) (human) (UniProt P16860); assay: sandwich ELISA kit, 5G8 coated at 5 μg/ml, HRP-5D11 detection; 0 pg/ml BNP (blank)
[7] = target: 人脑利钠肽(BNP) (human) (UniProt P16860); assay: sandwich ELISA, 5G8 coated, HRP-5D11 detection; plasma sample with BNP 1125.7 pg/ml
[8] = target: 人脑利钠肽(BNP) (human) (UniProt P16860); assay: sandwich ELISA, 5G8 coated, HRP-5D11 detection; plasma sample with BNP 2046.3 pg/ml
[9] = target: 人脑利钠肽(BNP) (human) (UniProt P16860); assay: sandwich ELISA, 5G8 coated, HRP-5D11 detection; plasma sample with BNP 3287.3 pg/ml
[10] = target: 人脑利钠肽(BNP) (human) (UniProt P16860); assay: indirect ELISA, serial two-fold dilution of the antibody; coated antigen taken as BNP
[11] = target: 人脑利钠肽(BNP) (human) (UniProt P16860); assay: indirect ELISA, BNP coated at 2 μg/ml, purified antibody diluted 10^4-fold; mean value
[12] = target: 人脑利钠肽(BNP) (human) (UniProt P16860); assay: sandwich ELISA kit, 5G8 coated at 5 μg/ml, HRP-5D11 detection; synthetic BNP standard 125 pg/ml
[13] = target: 人脑利钠肽(BNP) (human) (UniProt P16860); assay: sandwich ELISA kit, 5G8 coated at 5 μg/ml, HRP-5D11 detection; synthetic BNP standard 250 pg/ml
[14] = target: 人脑利钠肽(BNP) (human) (UniProt P16860); assay: sandwich ELISA kit, 5G8 coated at 5 μg/ml, HRP-5D11 detection; synthetic BNP standard 62.5 pg/ml
[15] = target: 人脑利钠肽(BNP) (human) (UniProt P16860); assay: sandwich ELISA kit, 5G8 coated at 5 μg/ml, HRP-5D11 detection; synthetic BNP standard 31.25 pg/ml
[16] = target: 人脑利钠肽(BNP) (human) (UniProt P16860); assay: sandwich ELISA kit, 5G8 coated at 5 μg/ml, HRP-5D11 detection; synthetic BNP standard 15.625 pg/ml
[17] = target: 人脑利钠肽(BNP) (human) (UniProt P16860); assay: sandwich ELISA kit, 5G8 coated at 5 μg/ml, HRP-5D11 detection; synthetic BNP standard 7.8125 pg/ml
[18] = target: 人脑利钠肽(BNP) (human) (UniProt P16860); assay: sandwich ELISA kit, 5G8 coated at 5 μg/ml, HRP-5D11 detection; synthetic BNP standard 3.90625 pg/ml

UniProt P16860, sequence (P16860 103-134): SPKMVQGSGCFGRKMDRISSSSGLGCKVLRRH

OD450nm [1] [OD450nm]	OD450nm [2] [OD450nm]	OD450nm [3] [OD450nm]	OD450nm [4] [OD450nm]	OD450nm [5] [OD450nm]	OD450nm [6] [OD450nm]	OD450nm [7] [OD450nm]	OD450nm [8] [OD450nm]	OD450nm [9] [OD450nm]	效价 (ELISA titer) [10]	OD450 [11] [OD450]	OD450nm [12] [OD450nm]	OD450nm [13] [OD450nm]	OD450nm [14] [OD450nm]	OD450nm [15] [OD450nm]	OD450nm [16] [OD450nm]	OD450nm [17] [OD450nm]	OD450nm [18] [OD450nm]	Binder
0.026	0.951	1.37	0.273	1.74	0.01	2.8	3.48	3.6	6.6e+06	2.85	1.11	2	0.529	0.224	0.086	0.033	0.024	兔单克隆抗体OTIR5G8 (antibody, V domains shown) VH: QSLEESGGRLVTPGTPLTLTCTASGFSLISYDMSWVRQAPGKGLEWIGFLGSGSSAYYASWAKGRFTISRTSTTVDLKITSPTTEDTATYFCARGTGWGQGTLVTVSS VL: AQVLTQTPSSVSAAVGGTVTINCQASQSVYKNNWLSWFQQKPGQPLKRLTYRASTLDSGVPSRFSGSGSGTEFTLTISDVQCDDAATYYCLGSYDCSSADFGGGTEMVVK
									1.3e+07	2.85								兔单克隆抗体OTIR5D11 (antibody, V domains shown) VH: QSVEESGGRLVTPGTPLTLTCTVSGFSLSSYAMNWVRQAPGKGLEWIGYIDSSGTIYYASWAKGRFTISKTSTTVDLKITSPTTEDTATYFCARGMNWGQGTLVTVS VL: AAVLTQTPSPVSAAVGGTVTISCQSSQSVYDNNALAWYQQKPGQPPKRLIYKASTLDSGVPSRFSGSGSGTQFTLTISGVQCDDAATYYCLGEYYDDAEFGGGTEVVVK
